In patent US20090031441A1 (NATIONAL UNIVERSITY CORPORATION NAGOYA UNIVERSITY, published 2009):

B1: AtGID1a (At3g05120), yeast two-hybrid bait in pGBKT7 DNA-BD vector (receptor, not shown: small tags and cut ends)
chain: MAASDEVNLIESRTVVPLNTWVLISNFKVAYNILRRPDGTFNRHLAEYLDRKVTANANPVDGVFSFDVLIDRRINLLSRVYRPAYADQEQPPSILDLEKPVDGDIVPVILFFHGGSFAHSSANSAIYDTLCRRLVGLCKCVVVSVNYRRAPENPYPCAYDDGWIALNWVNSRSWLKSKKDSKVHIFLAGDSSGGNIAHNVALRAGESGIDVLGNILLNPMFGGNERTESEKSLDGKYFVTVRDRDWYWKAFLPEGEDREHPACNPFSPRGKSLEGVSFPKSLVVVAGLDLIRDWQLAYAEGLKKAGQEVKLMHLEKATVGFYLLPNNNHFHNVMDEISAFVNAEC
notes: Bait fusion for the Y2H assays (BD Matchmaker Two-hybrid System 3); also called Arabidopsis GID1
B2: AtGID1b (At3g63010), yeast two-hybrid bait in pGBKT7 DNA-BD vector (receptor, not shown: small tags and cut ends)
chain: MAGGNEVNLNECKRIVPLNTWVLISNFKLAYKVLRRPDGSFNRDLAEFLDRKVPANSFPLDGVFSFDHVDSTTNLLTRIYQPASLLHQTRHGTLELTKPLSTTEIVPVLIFFHGGSFTHSSANSAIYDTFCRRLVTICGVVVVSVDYRRSPEHRYPCAYDDGWNALNWVKSRVWLQSGKDSNVYVYLAGDSSGGNIAHNVAVRATNEGVKVLGNILLHPMFGGQERTQSEKTLDGKYFVTIQDRDWYWRAYLPEGEDRDHPACNPFGPRGQSLKGVNFPKSLVVVAGLDLVQDWQLAYVDGLKKTGLEVNLLYLKQATIGFYFLPNNDHFHCLMEELNKFVHSIEDSQSKSSPVLLTP
notes: Bait fusion for the Y2H assays; also called Arabidopsis GID1

Columns and labels:
Assay in all cases: yeast two-hybrid system
[1] = biological target: T1, RGL1 (Arabidopsis DELLA protein), yeast two-hybrid prey in pGADT7 AD vector (Arabidopsis, UniProt Q9C8Y3 1-511)
T1 construct: also called AtDELLA
T1 sequence (looked up): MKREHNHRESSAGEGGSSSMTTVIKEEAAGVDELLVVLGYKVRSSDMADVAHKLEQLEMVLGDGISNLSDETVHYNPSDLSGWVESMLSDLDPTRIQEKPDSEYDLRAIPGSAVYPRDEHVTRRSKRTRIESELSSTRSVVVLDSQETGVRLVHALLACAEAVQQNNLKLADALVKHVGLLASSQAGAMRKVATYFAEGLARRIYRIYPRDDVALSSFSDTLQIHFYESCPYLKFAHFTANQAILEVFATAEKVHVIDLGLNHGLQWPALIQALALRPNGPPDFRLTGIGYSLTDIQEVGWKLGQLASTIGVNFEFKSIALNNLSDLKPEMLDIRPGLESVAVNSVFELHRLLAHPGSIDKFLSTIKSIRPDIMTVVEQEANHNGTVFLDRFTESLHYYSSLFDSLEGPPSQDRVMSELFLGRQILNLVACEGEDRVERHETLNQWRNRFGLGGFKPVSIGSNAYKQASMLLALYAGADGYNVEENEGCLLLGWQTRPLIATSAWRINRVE
Procedure: (§1) Arabidopsis has five DELLA proteins (RGA, GAI, RGL1, RGL2, and RGL3; collectively designated AtDELLA; Fleet, C. M., and Sun, T.-P. (2005) Curr. Opin. Plant Biol., 8, 77-85; Dill, A., and Sun, T. (2001) Genetics, 159, 777-785); therefore, there are 15 possible combinations of GID1/DELLA proteins. To verify the positive interactions between AtGID1-AtDELLA, two experiments were conducted using the yeast two hybrid (Y2H) system. In the first experiment (Assay A), a viable colony assay using a defined medium in which only positive clones would survive was carried out. In the second experiment (Assay B), β-galactosidase activity was measured, as reporter gene product of AtGID1-AtDELLA interactions.
(§2) BD Matchmaker Two-hybrid System 3 (Clontech, Palo Alto, Calif., USA; now part of Takara Bio) was used in the Y2H experiments. After confirming the PCR products of the AtGID1 genes by sequencing, PCR products were cloned into pGBKT7 DNA-BD shuttle vector to construct bait plasmids. Likewise, the entire coding region of each AtDELLA gene (GAI including EcoRI and XhoI sites; RGA including BamHI and XhoI sites; RGL1 including SmaI and SacI sites; RGL2 including SmaI and ClaI sites; RGL3 including SmaI and XhoI sites on the ends) was cloned into pGADT7 AD vector. The S. cerevisiae AH109 (MATa) strain or Y187 (MATα) strain was used, and DNA-BD and AD vector cassettes were used as negative controls. The details of the method used for the yeast assay are as described in the manufacturer's instructions (Yeast Protocols Handbook #PT3024-1; http://www.clontech.com/). Experiments were carried out four times independently. Similar results were obtained each time.

[2] = biological target: T2, RGL2 (Arabidopsis DELLA protein), yeast two-hybrid prey in pGADT7 AD vector (Arabidopsis, UniProt Q8GXW1 1-547)
T2 construct: also called AtDELLA
T2 sequence (looked up): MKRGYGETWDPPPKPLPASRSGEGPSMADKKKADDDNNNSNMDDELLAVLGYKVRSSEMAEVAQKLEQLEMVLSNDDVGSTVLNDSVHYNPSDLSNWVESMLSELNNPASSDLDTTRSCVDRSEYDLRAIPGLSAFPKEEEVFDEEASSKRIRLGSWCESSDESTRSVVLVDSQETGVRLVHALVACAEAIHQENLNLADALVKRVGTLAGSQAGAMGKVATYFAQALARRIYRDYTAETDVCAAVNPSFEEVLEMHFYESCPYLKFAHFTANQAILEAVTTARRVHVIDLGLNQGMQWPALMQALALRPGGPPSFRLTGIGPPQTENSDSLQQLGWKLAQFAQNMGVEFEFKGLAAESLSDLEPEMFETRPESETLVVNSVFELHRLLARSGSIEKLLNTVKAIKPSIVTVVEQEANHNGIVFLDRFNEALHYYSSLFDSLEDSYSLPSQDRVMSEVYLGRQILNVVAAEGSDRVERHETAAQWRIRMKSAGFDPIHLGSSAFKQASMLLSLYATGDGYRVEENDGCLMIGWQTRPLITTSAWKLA
Procedure: as §1, §2

[3] = biological target: T3, RGL3 (Arabidopsis DELLA protein), yeast two-hybrid prey in pGADT7 AD vector (Arabidopsis, UniProt Q9LF53 1-523)
T3 construct: also called AtDELLA
T3 sequence (looked up): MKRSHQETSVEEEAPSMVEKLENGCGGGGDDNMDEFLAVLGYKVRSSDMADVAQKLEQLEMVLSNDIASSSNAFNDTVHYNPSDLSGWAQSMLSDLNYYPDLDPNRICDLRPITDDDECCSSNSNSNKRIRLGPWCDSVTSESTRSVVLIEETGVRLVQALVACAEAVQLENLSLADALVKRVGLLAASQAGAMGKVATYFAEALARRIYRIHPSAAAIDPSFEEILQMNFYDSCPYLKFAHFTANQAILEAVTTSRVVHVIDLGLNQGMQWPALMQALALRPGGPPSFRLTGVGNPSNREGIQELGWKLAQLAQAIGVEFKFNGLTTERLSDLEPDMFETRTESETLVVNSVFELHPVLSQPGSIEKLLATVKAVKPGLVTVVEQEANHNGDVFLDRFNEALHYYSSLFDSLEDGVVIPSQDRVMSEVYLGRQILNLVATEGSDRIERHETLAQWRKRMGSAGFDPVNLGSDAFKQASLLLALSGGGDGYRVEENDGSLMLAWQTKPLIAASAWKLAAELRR
Procedure: as §1, §2

Binder | binding result [1] | binding result [2] | binding result [3]
B1 | binds | binds | binds
B2 |  | binds | 
